Data published in publication PMC11257990, “Noncanonical assembly, neddylation and chimeric cullin–RING/RBR ubiquitylation by the 1.8 MDa CUL9 E3 ligase complex” (Nature Structural & Molecular Biology, 2024).

Biological target: T1, UBE2L3 (human, UniProt P68036 1-154)
T1 construct: UBE2L3, human; source: E. coli Rosetta 2 (DE3), purified (glutathione sepharose, TEV cleavage, ion exchange, SEC)
Experiment: ITC; E2 (300–500 μM) in the syringe, CUL9^ARIH-RBR (25 μM) in the cell; 25 °C; 25 mM HEPES pH 7.5, 150 mM NaCl, 0.5 mM TCEP; 19 × 2 μl injections; single-site model
Details: both partners purified

T1 sequence (P68036 whole entry): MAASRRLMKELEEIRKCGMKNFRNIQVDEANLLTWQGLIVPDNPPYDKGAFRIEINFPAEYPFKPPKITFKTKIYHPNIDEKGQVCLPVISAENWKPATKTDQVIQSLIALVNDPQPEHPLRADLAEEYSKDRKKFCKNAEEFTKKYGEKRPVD

B1: CUL9^ARIH-RBR (domain or fragment, human, UniProt Q8IWT3 1979-2517, looked up)
chain: SPEAVATLASLQLPAGRTMSPQEVEGLMKQTVRQVQETLNLEPDVAQHLLAHSHWGAEQLLQSYSEDPEPLLLAAGLCVHQAQAVPVRPDHCPVCVSPLGCDDDLPSLCCMHYCCKSCWNEYLTTRIEQNLVLNCTCPIADCPAQPTGAFIRAIVSSPEVISKYEKALLRGYVESCSNLTWCTNPQGCDRILCRQGLGCGTTCSKCGWASCFNCSFPEAHYPASCGHMSQWVDDGGYYDGMSVEAQSKHLAKLISKRCPSCQAPIEKNEGCLHMTCAKCNHGFCWRCLKSWKPNHKDYYNCSAMVSKAARQEKRFQDYNERCTFHHQAREFAVNLRNRVSAIHEVPPPRSFTFLNDACQGLEQARKVLAYACVYSFYSQDAEYMDVVEQQTENLELHTNALQILLEETLLRCRDLASSLRLLRADCLSTGMELLRRIQERLLAILQHSAQDFRVGLQSPSVEAWEAKGPNMPGSQPQASSGPEAEEEEEDDEDDVPEWQQDEFDEELDNDSFSYDESENLDQETFFFGDEEEDEDEAYD
notes: CUL9, human, ARIH-RBR element, residues 1979-2517; also called CUL9 RBR element; source: HEK293S, baculovirus infection, without RBX1, purified; not shown: TwinStrep, N-terminal, cleaved
B1: binds.
